Laboratory results: the nanobody polyreactivity screen of Harvey et al. (2022)

Assay: yeast display, Sf9 membrane polyspecificity reagent, FACS + sequencing; frameworks hold sequencing errors
Outline: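 Nanobodies came from a synthetic yeast display library in Saccharomyces cerevisiae BJ5465, induced with galactose for 36–48 hours and stained for 1 hour at 4 °C with 10% biotinylated, detergent-solubilized Sf9 membrane reagent. Cells were enriched on streptavidin microbeads and then FACS-sorted, with low and high (top ~1%) gates set on anti-HA fluorescence for expression and streptavidin fluorescence for reagent binding. Each polyreactivity label reflects the gate a clone came from. Genes were amplified by colony PCR, sequenced by MiSeq 2 × 250 and filtered by CDR length.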

| Sequence | polyreactivity (PSR sort gate) |
| --- | --- |
| QVQLVESGGGLVQAGGSLRLSCAASGRIFNSYGMGWYRHAPGKEREFVAAISRSGGITYYADSVKGRFTISRDNAKNTVYLQMNSLKPEDSAVYYCAADYYWRRQRQVGYWGQGTQVTVSS | high polyreactivity |
| QVQLVESGGGLVQAGGSLRLSCAASGIIFYRYAMGWYRQAPGKERELVAAITWRGGSPYYADSVKGRFTISRDNAKNTVYLQMNSLKPEDTAVYYCAAESYWTATYTFDYWGQGTQVTVSS | high polyreactivity |
| QVQLVESGGGLVQAGGSLRLSCAASGFIFSFNAMGWYRQAPGKERELVAAISRRGGRTYYADSVKGRFTISRDNAKNTVYLQMNSLKPEDTAVYYCAAQGRDSTPHGYWGQGTQVTVSS | high polyreactivity |
| QVQLVESGGGLVQAGGSLRLSCAASGFIFSYNAMGWYRQAPGKERELVAAISSRGGSTYYADSVKGRFTISRDNAKNTVYLQTKSLKPEDTAVYYCAVASRRVYTAPYDYWGQGTQVTVSS | high polyreactivity |
| QVQLVESGGGLVQAGGSLRLSCAASGSIFEYYAMGWYRQAPGKERELVATITGTDSTYYADSVKGRFTISRDNAKNTVYLQMNSLKPEDTADCAADRAASRPDYDYWGQGTQVTVSS | low polyreactivity |
| QVQLVESGGGLVQAGGSLRLSCAASGRTFPVYAMGWYRQAPGQERELVAAINTSGTSTYYADSVKGRFTISRDNAKNTVYLQMNSLKPEDTAVYYCATRYRYTYYWGQGTQVTVSS | high polyreactivity |
| QVQLVESGGGLVQAAGSLSLICAASGIIFQRSAKGWYRQAPVKERELVATLTISGGSTYYADSVKGRFTISREYAKNTVYLQMNRLKPEDTAVYYCAAALYYPTVRRRFGSDYYWGQGTQVTVSS | low polyreactivity |
| QGQLVESGGGLVQAGGSLRIICAASANNFAKYAMGRYRQAPGKERELVAAISKRGGSTYYADSVKGRFTISRDNAKNTVYLQMNSLKPEETAVYYCAQRVLNYQRYDYWGQGTQVTVSS | high polyreactivity |
| QVQLVESGGGLVQAGGSLRLSCAASGSILVSYAMGWYRQAPGKERELVAAITRSGVRTYYADSVKGRFTISRDNAKNSVYLQMNSLKPEDTAVYYCAADTYRSSSPYGYWGQGTQVTVSS | high polyreactivity |
| QVQLVESGGGLVQAGGTLRLSCAASGSTFGRYAMGWYRQAPGKERELVAAITSDTGNTNYADSVKGRFTISRDNAKNTVYLQMNSLKPEDTAVYYCAARLYARRVYDYWGQGTQVTVSS | low polyreactivity |
| QVQLVESGGGLVQAGVSLRLSCAASGRTFTHYPMGWYRQAPGKERELVAAISRSGGTTYYADSVKGRFTISRDNAKSTVYLQMNSLKPEDTAVYYCNAEVVDSELGVFVDYYWAYDYWGQGTQVTVSS | high polyreactivity |
| QVQLQERGGGLVQAGGSLRLSCAASCTIFRFRYMGWHRQAPGKERELVAGINGGTTTYYADSVIGRFTISRDNAKNTLYLQMNSLKPDDTAVYNCAAVASRLTYYDYWGQGTQVTVSS | low polyreactivity |
| QVQLVESGGGLVQAGGSLRLSCAASGSTFPRYAMGWYRQAPGKERELVAAMSSSGGRTYYADSVKGRFTISRDNAKNTVYLQMNSLKPEDTAVYYCAARAFKTIIYDYWGQGTQVTVSS | high polyreactivity |
| QVQLVESGGGLVQAGGSLRLTCAASGSIFAAKAMGWYRQAPGKERELVAAIRTRTGSTYYADSVKGRFTISRDNAKNTVYLEMNSLKPEDTAVYYCAADGGVPFWIHSTYYYWGQGTQVTVSS | low polyreactivity |
| QVQLVESVGGLVQAGGSLRLSCAASGSTFQSNGMGWYRQAPGKERELVAAITSTDASTSYADSVKGRFTISRDNAKITVYLQMNSLKPEDTAVYYCAADFPVASGAELDYWGQGTQVTVSS | low polyreactivity |
| QVHLVESGGGLVQAGGSLRLSCAASGSIFVAYAMGWYRQAPGKERELVAAISSSGGTTYYADSVKGRFTISRDNAMNTVYLQMNSLKPEDTAVYYCAARDYKFYYWGQGSQVTVSS | high polyreactivity |
| QVQLVESGGGLVQAGGSLRLSCAASGTTFGRNAMGWYRQAPGKERELVAAINSGGGTYYADSVKGRFTISRDNAKNTVYFQMNSLKPEDTAVYYCAAARRYGNYDYWGQGTQVTVSS | low polyreactivity |
| QVQLVESGGGLVQAGGSLRLSCAASGFTFWYYAMGWYRQAPGKERELVASISSIGGSTYYADSVKGRFTISRDNAKNTVYLQMNSLKPEDTAVYYCAADRSSNGLMPGSKNEYWGQGTEVTVSS | high polyreactivity |
| QVQLVESGGGLVQAGGSLRLSCAASASTFGSYAMGWYRQAPGKERELVAAISRAGSTYADSVKGRFTISRDNAKNTVYLQMNSLKTEDTAVYYCAKRDYALYYGYDYWGQGTQVTVSS | low polyreactivity |
| LVQLQESGGGLVQAGGSLRLSCAASGTNSPGGYMGWYRKAPGKERELVASINVGGSTNYADSVKGRFTISRDNAKNTVYLQMNSLKPEDNAVYFCAVWGRNRLQLSYWGQGTQVTVSS | low polyreactivity |
| QVQLVESGGGLVQAGGSLRISCAASGFIFRGNTMGWYRQAPGKERELVASITRGGGRTYYADSVKGRFTISRDNAKNTVYLQMNSLKPEDTAVYYCAARTRSDNSYHGGEYWGQGTQVTVSS | high polyreactivity |
| QVQLVESGGGLVQAGGSLRLSCAASGRTFQANAMGWYRQAPGTERELVAAITGRGGTTYYADSVKGRFTISRDTAKNTVYVQMYSLKPEDTAVYYCALALSGYGFWGYDYWGLGTQVTVSS | low polyreactivity |

| Sequence | polyreactivity (PSR sort gate) |
| --- | --- |
| QVQLVESGGGLVQAGGSLRLSCAASGITFWANAMGWYRQAPGKERELVASIRSSGGSTYYADSVKGRFTISRDNAKNTVYLQMNSLKPEDTAVYYCNARLGPLYVYRQYDSWGQGTQVTVSS | low polyreactivity |
| QVQLEESGGGLVQAGGSLRLSCAASGSTIPPYAMGWYRQAPRKERELVAAITSGGSTYYADSVKGRFTISRDNAKNTVYLQMNSLKPEDTAVYYCAASWDPWEYDYWGQGTQVTVSS | low polyreactivity |
| QVQLVESGGGLVQAGGSLRLSCAASGSTFYKYAMGWYRQAPGIEPELVAAISRGGSTYYADSVKGRFTISRDNAKNTVYLQMNSLKPEDTAVYYCAAETVSYYSKYDYWGQGTQVTVSS | low polyreactivity |
| QVHLVESGGGLVQAGGRLRLSCAASGRIFYTYAMGWYRQAPGKERELVAAITSGGSTYYADSVKGRFTISRDNAKNTVYLQMNSLKPEDTAVYYCNKVSYYRNEYWGQGSQVTVSS | high polyreactivity |
| QVQLVESGGGLVQAGGSLRLSCAASGRIFAIYAMGWYRQAPGKERELVAGITYSAGSTYYADSVKGRFTISRDNAKNTVYLQMNSLKPEDTAVYYCAALEYNSHRYGYDYWGQGTQVTVSS | low polyreactivity |
| QVQLVESGGGLVQAGGSLRLSCAASGGTIAYNAMGWYRQAPGKERELVAAISSSGGRTYYADSVKGRFTISRDNAKNTVYLQMNSLKPEDTAVYFCATPVNNGFDYWGQGTQVTLSS | high polyreactivity |
| QVQHVESGGGLVQAGGSLRLSCAASGRTFNLKAMGWYRQAPGKERELVAAISWSGGSTYYADSVKGRFTISRDNAKNTVYLQMNSLKPEDTAVYYCAAETYAYLFHTYDYWGQGTQVTVSS | low polyreactivity |
| QVQLVESGGGLVQAGGSLRLSCAASGRIFNGNALGWYRQAPGNERELVAAISSGGRTYYADSVKGRFTISRDNAKNTVYLQMNSLKPEDTAVYYCNARGYSGRVIPEYYYWGQGTQVTVSS | high polyreactivity |
| QGQLEDSGGGLVQAGGSLRLSCAASGLTYDHNAMGWYRNATGKEREFFAVISWRGTSTYYADSVKGRFTISRDNAKNTVFLQMHSLKPEDTAVYYCATRYYGDDVYRYDHWGQGTQVTVSS | high polyreactivity |
| QVQLVESGGGLVQAGGSLRLSCYASGGTFRWYAMGWSRQAPGKERELVAAISYSGGPTYADSVKGRFTISRDNAKNTVYLQMNSLKPEDTAVYYCNAVRYITHYDYWGQGTQVTVSS | high polyreactivity |
| QVQLVESGGGLVQAGGSLRLSCAASGRIVWFYTMGWYRQAPGKERELVAAISDSAGSTYYADSVKGRFTISRDNAKNTVYLQMNSLKPEDTAVYYCAADGWWQYDYWGQGTQVTVSS | low polyreactivity |
| QVQLVESGGGLVQAGGSLRLSCAASGRIYWNTMGWYIQAPGKERELVASISTGGGRTYYADSVKGRFTISRDNAKNTVYLQMNSLKPEDTAVYYCAVRSYGHGFDYWGQGTQVTVSS | high polyreactivity |
| QVQLVESGGGLVQAGGSLRLSCAASGGIFRHNAMGWYRQAPGKERELVAAISRSGGNTYYADSVKGRFTISRDNAKNTVYLQMNSLKPEDTAVYYCNKIEYDSWADHVYWGQGTQVTVSS | low polyreactivity |
| QVQLEESGGGLVQAGGSLRLSCAASGSTFINNAMGWYRQPPGKERELVAAISSGGSTYYADSVKGRFTISRDNAKNTVYLEMNSLKPEDTAVYYCAAEFVETKYPEMDYWGQGTQVTVSS | low polyreactivity |
| QVQLVESGGGLVQAGGSLRLSCAASGRTFYYYAMGWYRQAPGKERELVAGISWSAGSTYYADSVKGRFTISRDYAKNTVYLQMNSLKPEDTAVYYCAARYWQSYRSQVTHSSTLDYWGQGTQVTVSS | low polyreactivity |
| QVQLVESGGGLVQAGGSLRLSCAASGSTFYRNAMGWYRQAPGKERELVAGISRRGGSTYYADSVKGRFTISRDNAKNTVYLQMNSLKPEDTAVYYCNADYPGIPHNDYWGQGTQVTVSS | low polyreactivity |
| QVQIVESGRGLVQAGGSLSLSCAASGNIFYRYTMGWYRQAPGKERELVAAISRTGGSTYYADSVKGRFTISRDNAKNTVYLQMNSLKPEDTAVYYCAVRYMDPPYFYSKRFGYWGQGTQVTVSS | high polyreactivity |
| QVQLVESGGGLVQAGGSLRLSCAASGYIFYAYAMGWYRQAPGKERELVAAISSGGGRTYYADSVKGRFTISRDNAKNTVYLQMNSLKPEDTAVYYCAARRRDRGEYYYWGQGTQVTVSS | high polyreactivity |
| QVQLVESGGGLVQAGGSLRLSCAASGSTSSNNAMGWYRQAPGKEREFVADISSRGGSTYYADSVKGRFTISRDNAKNTVYLQMNSLKPEDTAVYYCARTRFWLRYRLFDYWGQGTHVTVSS | low polyreactivity |
| QVQLVESGGGLVQAGGSLRLSCAASGRIFVRYTMGWYRQAPGKERELVAAINSGGRTYYADSVKGRFTISRDNAKNTVYLQMNSLKPEDTAVYYCAADRVYYGQRDYWGQGTQVTVSS | high polyreactivity |
| KDQIVQSGAGLVQAGGSLRISCAPSGFIFTYNAMGWYIQAPGKEREIVATITWSGGSTYYADSVKGRFTISRDNAKNTVYLQMYSLNPEDTAVYYCAVDYSRHGYWSPVYVFNYWGQGTKVTVSS | low polyreactivity |
